According to patent publication US20240218011A1 (FIREFLY BIO, published 2024):

Target: human LPAM1 (human, UniProt P26010 20-798)
Assay: cell-based or functional assay

human LPAM1, sequence (P26010 20-798): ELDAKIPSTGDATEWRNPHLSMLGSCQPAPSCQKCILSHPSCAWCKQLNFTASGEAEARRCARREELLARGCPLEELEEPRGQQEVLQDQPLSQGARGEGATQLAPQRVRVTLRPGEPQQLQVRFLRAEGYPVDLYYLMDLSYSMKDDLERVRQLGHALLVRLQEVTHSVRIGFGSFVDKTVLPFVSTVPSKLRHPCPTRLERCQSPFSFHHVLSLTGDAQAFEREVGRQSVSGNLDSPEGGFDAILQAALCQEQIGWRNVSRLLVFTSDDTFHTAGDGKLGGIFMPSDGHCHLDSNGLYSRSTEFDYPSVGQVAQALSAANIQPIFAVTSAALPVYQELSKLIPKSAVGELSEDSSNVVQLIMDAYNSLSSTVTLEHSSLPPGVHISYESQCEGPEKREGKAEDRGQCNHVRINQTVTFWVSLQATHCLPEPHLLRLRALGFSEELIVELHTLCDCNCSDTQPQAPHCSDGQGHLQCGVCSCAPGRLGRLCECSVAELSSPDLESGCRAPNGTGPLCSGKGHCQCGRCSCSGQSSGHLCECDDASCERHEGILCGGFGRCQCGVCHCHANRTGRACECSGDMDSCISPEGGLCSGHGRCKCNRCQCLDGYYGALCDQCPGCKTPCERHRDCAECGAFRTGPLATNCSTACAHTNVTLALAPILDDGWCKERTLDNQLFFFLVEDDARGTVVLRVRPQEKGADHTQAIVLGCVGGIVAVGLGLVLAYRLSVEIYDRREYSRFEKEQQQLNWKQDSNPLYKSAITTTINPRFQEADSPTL

Fold induction Anti-LPAM1 conjugate at 0.0064 nM; luciferase reporter: 1 fold
Fold induction Anti-LPAM1 conjugate at 0.032 nM; luciferase reporter: 1 fold
Fold induction Anti-LPAM1 conjugate at 0.16 nM; luciferase reporter: 20 fold
Fold induction Anti-LPAM1 conjugate at 0.8 nM; luciferase reporter: 121 fold
Fold induction Anti-LPAM1 conjugate at 4 nM; luciferase reporter: 147 fold
Fold induction Anti-LPAM1 conjugate at 20 nM; luciferase reporter: 177 fold
Fold induction Anti-LPAM1 conjugate at 100 nM; luciferase reporter: 240 fold
Fold induction Anti-LPAM1 conjugate at 500 nM; luciferase reporter: 361 fold
B1: Anti-LPAM-1-Linker 1-Bud (vedolizumab conjugated to GR agonist budesonide with Linker 1) (antibody, human IgG1, kappa, V domains shown)
VH: QVQLVQSGAEVKKPGASVKVSCKGSGYTFTSYWMHWVRQAPGQRLEWIGEIDPSESNTNYNQKFKGRVTLTVDISASTAYMELSSLRSEDTAVYYCARGGYDGWDYAIDYWGQGTLVTVSS
VL: DVVMTQSPLSLPVTPGEPASISCRSSQSLAKSYGNTYLSWYLQKPGQSPQLLIYGISNRFSGVPDRFSGSGSGTDFTLKISRVEAEDVGVYYCLQGTHQPYTFGQGTKVEIKR
modifications: budesonide attached through Linker 1; residues and chain not stated
